{"source": "the nanobody polyreactivity screen of Harvey et al. (2022)"}
{"assay": "yeast display, Sf9 membrane polyspecificity reagent, FACS + sequencing; frameworks hold sequencing errors", "summary_of_the_method": "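A nanobody's polyreactivity label depends on the gate it was sorted from. Yeast display cells were stained with 10% biotinylated, detergent-solubilized Sf9 membrane reagent for 1 hour at 4 °C, enriched on streptavidin microbeads and sorted by FACS. The low and high (top ~1%) gates were set on anti-HA fluorescence for expression and streptavidin fluorescence for reagent binding.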"}
{"sequence": "QVQLVESGGGLVQAGGSLRLSCAASGSTFAYNDMGWYRQAPGKERDLVADIRYGGNTNYADSVKGRFTISRDNAKNTDYFQMNSLKPVDTSVYYCATDGYRSDVYHPDYRYDYWGQCTQVTVSS", "polyreactivity (PSR sort gate)": "low polyreactivity"}
{"sequence": "QVQLVESGGGLVQAGGSLRLSCAASGFTFYVYAMGWYRQAPGKEREFVAAISSSGGSTYYADSVKGRFTISRDNAKNTVYLQMNSLKPEDTAVYYSAALAYSTTRGRLDYWGQGTQVTVSS", "polyreactivity (PSR sort gate)": "high polyreactivity"}
{"sequence": "QVQLVESGGGLVQAGGSLRLSCAASGSIFEGNAMGWYRQAPGKERELVAAISTTGGITYYADSVKGRFTISRDNAKNTVFLQMNSLKPEDTAVYYCAADPSQPRIDSSNYDYWGQGTQVTLSS", "polyreactivity (PSR sort gate)": "low polyreactivity"}
{"sequence": "QVQLVESGGGLVQAGGSLRLSCAASGRIFVRNAMGWYRQAPGKERELVAAISRSGGSTSYADSVKGRFTISRDNAKNTVYLQMNSLKPEDTAVYYCAARYARYQYQYDYWGQGTQVTVSS", "polyreactivity (PSR sort gate)": "high polyreactivity"}
{"sequence": "QDQLVESGRGLFQAGGSLRLSCAASGSTLWANAMGWYRQAPGKERELVAAISWRGGRTYYADSVKGRFTISRDNAKNTVYLQMNSLKPEVTAVYYCNAVSYYRPRTDYWGQGTLVTVSS", "polyreactivity (PSR sort gate)": "high polyreactivity"}
{"sequence": "QVQLVESGGGLVQAGGSLRLSCAASGFTFYGYAMGWYRQAPGKERELVAAISTRGSRTYYADSVKGRFTISRDNAKNTVYLQMNSLKPEDTAVYYCARRRGPSYGLDYWGQGTQVTVSS", "polyreactivity (PSR sort gate)": "high polyreactivity"}
{"sequence": "QVQLVESGGGLVQAGGSLRLSCAASGSIFSVNSMGWYRPAPGKERELVATIRTGDSTNYADSVKGRFTISRDNAKNTVYLQMNSLKPEDTAVYYCAAEWSSLNFDYWGHGTQVTVSS", "polyreactivity (PSR sort gate)": "low polyreactivity"}
{"sequence": "QVQLVESGGGLVQAGGSLRLSCAASGSTFQYNAMGWYRQAPGKERELVAVISGSGSRTYYADSVKGRFTISRDNAKNTVYLQMNSLKPEDTAVYYCAKQRGGEPRSSTYYYWGQGTQVTVSS", "polyreactivity (PSR sort gate)": "high polyreactivity"}
{"sequence": "QVQLVESGGGLVQAGGSLRLSCAASGRTFGGYAMVWYRQAPGKERELVATITKNGGSTYYADSVKGRFTISRDNAKNTVYVQMNSLKPEVTAVYYCATGSRGYKASPQWRDYWGQGTQVTVSS", "polyreactivity (PSR sort gate)": "high polyreactivity"}
{"sequence": "QVQLVESGGGLVQAGGSLRLSCAASGFIFKANAMGWYRQAPGKERELVASITFGGDSTYYADSVKGRFTISRDNAKNTVYLQMNSLKPEDTAVYYCNTRRRSYRTYYYWGQGTQVTVLS", "polyreactivity (PSR sort gate)": "low polyreactivity"}
{"sequence": "QVQLVESGGGLVQAGGSLRLSCAASGSTFYRYPMGWYRQAPGKEREFVAAISGSGGSTRYADSVKGRFTISRDNAKKTVYLQMNSLKPEDTAVYYCAARSRYGYITFDYWGQGTQVTVSS", "polyreactivity (PSR sort gate)": "high polyreactivity"}
{"sequence": "QVQLVESGGGLVQAGGSLRLSCAASGRTFYAYAMGWYRQAPGKERELVAAISWRGGRTYYADSVKGRFTISRDNAKNTVYLQMNSLKPEDTAVYYCAAEYSYGFDYWGQGTQVTVSS", "polyreactivity (PSR sort gate)": "high polyreactivity"}
{"sequence": "QVQLVESGGGLVQAGGSLRLSCAASGSTFDYYAMGWYRQAPAKERELVAVISRSGGSTYYADSVKGRFTISRDNAKNTVYLQMNSLKPEDTAVYYCAKSRPSKYDYWGQGTQVTVSS", "polyreactivity (PSR sort gate)": "high polyreactivity"}
{"sequence": "QLQLVESGGGLVQAGGSLRLSCAASGIIFRYNTKGSYIQAPGKESELVAAIRTTGGSTYYADSVKGRFTISRDNAKNTVYLQMNSLKPEDPAVYYCAAVGFGRQGQEDYWGHGTQVTVSS", "polyreactivity (PSR sort gate)": "low polyreactivity"}
{"sequence": "QVQLEESGGGLVQAGGSLRLSCAASGSIFDTYAMGWYRQAPGNERELVAAISSGGRTYYADSVKGRFTISRDNAKNTVYLQMNSLKPEDTAVYYCNARYHARYGGDYWGQGTQVTVSS", "polyreactivity (PSR sort gate)": "high polyreactivity"}
{"sequence": "QVQLVESGGGLVQAGGSLRLSCAATGSTFKWYAMGWYIQAPGKERELVDSISWTGASTYYADSVKGRFTISRDKAKNTVYLQMNSLKPEDTAVYYCAADRTYYALLWTGRSRYDYWGQGTQVTVSS", "polyreactivity (PSR sort gate)": "high polyreactivity"}
{"sequence": "QVQLVESAGGLVQAGGSLRLSCAASGLTYYFYPMGWYRQAPGKETELVAAINYDDGSTYYADSVKGRFTISRDNAKNTVYLQMNSLKPEDTAVYYCAADRDFRTPRLYYWGQGTQVTVSS", "polyreactivity (PSR sort gate)": "low polyreactivity"}
{"sequence": "QVQLVESGGGLVQEGGSLRLSCAASGSTFSRYAMGWYRQAPGKERELVAAISSRGGSTYYADSVKGRFTISRDNAKNNVYLQMNSLKPEDTAVYYCNALTSYQNHVYPYDYWGQGTQVTVSS", "polyreactivity (PSR sort gate)": "high polyreactivity"}
{"sequence": "QVQLVESGGGLVQAGGSLRLSCAASGRTYTFNTMGLSRQAPGKEREWVAAIDGDGTTNYADSVKGRFTISRDNAKNTVYLQMNSLKPEDTAVYYCAADFLYSFWYEPTFDYWGQGTQVTVSS", "polyreactivity (PSR sort gate)": "low polyreactivity"}
{"sequence": "QVQLVESGGGLVQAGGSLRLSCAASGRTFSYYAMGWYRQAPGKERELVAAISWRGGSTYYADSVKGRFTISRDNAKNTVYLQMNSLKPEDTAVYYCAALPRYALGEDYWGQGTQVTVSS", "polyreactivity (PSR sort gate)": "high polyreactivity"}
{"sequence": "QVQLVETGGGLVQAGGSLRISCAPSGRTFRNNDMAWYRQAPGTEREFVAVISNTGGSTYYADSVKGRFTNSRDNAKNTVYLQMNSLKPEDTAVYYCAVRPRYSQYYYWGQGTQVTVSS", "polyreactivity (PSR sort gate)": "high polyreactivity"}
{"sequence": "QVQLVESGGGLVQAGGSLRLSCAASGRIFTYNAMVWYRQAPGKERELVAVITSGGSTYYADSVKGRFTISRDNAKNTVYLQMNSLKPEDTAVYYCAARVWGSSQYYYWGQGTQVTVSS", "polyreactivity (PSR sort gate)": "low polyreactivity"}
{"sequence": "QVQLVESGGGLVQAGGSLRLSCAASGSTFSYNAMGWYRQAPGKERELVAAIDRSVSTNYADSVKGRFTISRDNAKNTVYLQMNSLKTEDTAVYYCNARHPTDDIVIYDYWGQGTQVTVSS", "polyreactivity (PSR sort gate)": "low polyreactivity"}
{"sequence": "QVQLVESGGGLVQAGGSLRLSCAASGSIFITYAMGWYRQAPGKERELVAAIRDSGDRTYYADSVKGRFTISRDNEKNTVYLQMNSLKPEDTAVYYCNARWQEPLKYDYWGQGTQVTVSS", "polyreactivity (PSR sort gate)": "low polyreactivity"}
{"sequence": "QVQLVESGGGLVQAGGSLRLSCAASGSTFWDYAMGWYRQAPGKERELVAAINSGDSTNYADSVKGRFTISRDNAKNTVYFQMNSLKPEDTAVYYCNVDWYDKGYGGYDYWGQGTQVTVSS", "polyreactivity (PSR sort gate)": "low polyreactivity"}
{"sequence": "QVQLVDSGGGLVQAGGSLRLSCAASGRTFDVYTMGWYRQAPGKERELVAAINGGGSTYYADSVKGRFTISRDNAKNTVYLQMNTLKPEDTAVYYCAAKLRAGRSSYYWGQGTQVTVSS", "polyreactivity (PSR sort gate)": "high polyreactivity"}
{"sequence": "QVQLVESGGGLVQAGGSLRLSCAASGSTINSYAMGWYRQAPGKERELVAAITWIGGNTYYADSVKGRFTISRDNAKNTVYLQMNSLKPEDTAVYYCAADEYFEYYYWGQGTQVTVSS", "polyreactivity (PSR sort gate)": "low polyreactivity"}
{"sequence": "QEQLQESGGGLVQAGGSLYLSCAASGNIFEYYDMGWYRQGKERELVAGISYGTNTNYAVSVKGRFTISRDIAKNTVYLQMNSLKPEDTAVYYCARRIGHGSRPYWLETWLYPYDYWGQGTQVTVSS", "polyreactivity (PSR sort gate)": "low polyreactivity"}
{"sequence": "QVQLVESGGGLVQAGGSLRLSCAASGRIVARNAMRWYSQAPGKERELVGAITYSGGSTYYADSVKGRFTISRDNAKNTVYLPMISLKPEDTAVYYCAAETSKRGRRYYYWGQGTQVTVSS", "polyreactivity (PSR sort gate)": "high polyreactivity"}
{"sequence": "QVQLVESGGGLVQAGGSLRLSCAASGLTFQWYAMGWYRQAPGKERELVAAISSRGGSTYYADSVKGRFTISRDNAKNTVYLQMNSLKPVDTAVYYCAVYTIGYLAWYQKFDYWGQGTQVTVSS", "polyreactivity (PSR sort gate)": "high polyreactivity"}
{"sequence": "QVQLVESGGGLVQAGGSLRLSCAASGRIFPKYAMGWYRQAPGKERELVAGITKRVGSTYYADSVKGRFTISRDNAKNTVYLQMNSLKPEDTAVYYCAKRWVSRTHGYWGQGTQVTVSS", "polyreactivity (PSR sort gate)": "low polyreactivity"}
{"sequence": "QVQLVESGGGLVQAGGSLRLSCAASGRTFGYYAMGWYRKAPGKERELVAAISWRGTSTYYADSVKGRFTISRDNAKNTVYLQMNSLKPEDTAVYYCAVGRTVAHRFIAGDYWGQGTQVTVSS", "polyreactivity (PSR sort gate)": "high polyreactivity"}
{"sequence": "QVQLVESAGGLVQAGGSLRLSCAASGFIFSRNAMGWYRQAPGKERELVAAISGTGGRTYYADSVKGRFTLSRDNAKNTVYLQMNSLKTEDTAVYYCAADKRIGGFGYWGQGTQVTVSS", "polyreactivity (PSR sort gate)": "high polyreactivity"}
{"sequence": "QVQLVESGGGLVQAGVSLRLSCAASGTTFGLNPMGWYRQAPGKERELVAAISTSGGSTYYADSVKGRFTISRDNAKNSVYLQMISLKPEDTAVYYCAAEVDAGYDYSQYYYWGQGTQVTVSS", "polyreactivity (PSR sort gate)": "low polyreactivity"}
{"sequence": "QVQLVESGGGLVQAGGSLRLSCAASGRIFSGNGMGWYRQATGKERELVASITWSGTSTYYADSVKGGFTISRDNAKNTVYLQMNSLKPEDTAVYYCNTRTSRRIWYSKSGKRYDYWGQGTQVTVSS", "polyreactivity (PSR sort gate)": "high polyreactivity"}
{"sequence": "QVQLVESGGGLVQAGGSLRLSCAASGRIFWSYPMGWYRQAPGKERELVAAITWRTGRTYYADSVKGRFTISRDNAKNTVYLQMNSLKPEDTAVYYCAAEGYLWGQSYNGLNYDSWGQGTQVTVSS", "polyreactivity (PSR sort gate)": "low polyreactivity"}
{"sequence": "QVQLVESGGGLVQAGGSLRLSCAASGSIYWYAMGWYRQAPGKERELVAAISRRGGSTYYADSVKGRFTISRDNDKNTVYLQMNSLKPEDTAVYYCAVGIYGEYDYWGQGTQVTVSS", "polyreactivity (PSR sort gate)": "high polyreactivity"}
{"sequence": "QVQLVESGGGLVQAGGSLRLRCAASGSIFSSNAMGWYRQAPGKERELVAAITSGGSTYYADSVKGRFTISRDNAKHTVYLQMNSLKPEDTAVYYCAADDWGDGVYKLDYWGQGTQVTVSS", "polyreactivity (PSR sort gate)": "low polyreactivity"}
{"sequence": "QVQLVESGGGLVQAGGSLRLSCAASGSILAGNVMGWYRQAPGKERELVAAITGSGGITYYADSVKGRFTISRDNAKNTVYLQMNSLKPEDTAVYYCNAVPDTRSGELDYWGQGTQVTVSS", "polyreactivity (PSR sort gate)": "low polyreactivity"}
{"sequence": "QVQLVESGGGLVQAGGSLRLSCAASGSIFGWYAMGWYRQAPGKERELVATISSGGGNTYYADAVKGRFTISRDNAKNTVYLQMNSLKPEDTAVYYCNASPGPDSRLAEFDYWGQGTQVTVSS", "polyreactivity (PSR sort gate)": "low polyreactivity"}
{"sequence": "QVQLVESGGGLVQAGGSLRLSCAASGSTFGSNAMGWYRQAPGKERELVAAISWTGGSTYYADSVKGRFTISRDNAKYTVYLQMKSLKPEDTAVYYCNAYGYGYPLYRYDYWGQGTQVTVSS", "polyreactivity (PSR sort gate)": "low polyreactivity"}
{"sequence": "QVQLVESGGGLVQAGGSLRLSCAASGRIFPGYAMGWYRQAPGKERELVAAISGGGGRTYYADSVKGRFTISRDNAKNTVYLQMNSLKPEDTAVYYCAADTTPPRGFDYWGQGTQVTVSS", "polyreactivity (PSR sort gate)": "high polyreactivity"}
{"sequence": "QVQLVESGGGLVQAGGSLRLSCAASGSTFVHYAMGWYRQAPGKERELVAAITISGGRTYYADSVKGRFTISRDNAKNTVYLQMNSLKAEDTAVYYCNADHYHRTWGYDYWGQGTQVTVSS", "polyreactivity (PSR sort gate)": "low polyreactivity"}
